Measurements as given in publication PMC12644734.

Molecular target: T1, SARS-CoV M protein (SARS-CoV), P59596
T1 chain: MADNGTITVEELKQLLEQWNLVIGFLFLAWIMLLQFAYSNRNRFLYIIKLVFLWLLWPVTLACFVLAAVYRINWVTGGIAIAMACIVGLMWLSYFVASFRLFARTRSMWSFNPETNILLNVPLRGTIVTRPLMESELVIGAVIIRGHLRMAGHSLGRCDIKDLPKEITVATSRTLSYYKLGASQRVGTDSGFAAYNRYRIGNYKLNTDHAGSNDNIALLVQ
Test: cryo-EM structure
Conditions: remark: other sources report otherwise

B1: SARS-CoV M protein, P59596 1-221 (natural protein)
chain: T1 chain
With B1 the stoichiometry N was 2.
